Assay results taken from patent US20260000736A1, “PURIFIED LACTOFERRIN COMPOSITIONS AND METHODS OF USE” (Lactea Therapeutics LLC, priority 2023, published 2026).
“Also recorded” adds a separate entry of the source.

How the values were obtained:
E. coli 0157 [1] = test: Biofilm formation, crystal violet assay; type: cell-based; details: for Biofilm Inhibition, Replicate 1 / Biofilm Inhibition, Replicate 2 / Biofilm Inhibition, Replicate 3: 24 hours
Method: Lactoferrin was assessed for biofilm growth inhibition. To study the relative concentration dependent efficacy of Lactea-Lf and the Sigma Aldrich research standard Lactoferrin in inhibiting biofilm formation, Lf was added at concentrations ranging from 2 mg/mL to 0.31 mg/mL (2-fold serial dilution curve) to E. coli 0157 in LB seeded at 10∝CFU/mL and incubated for 37° C. for 24 hours. Lactea Lactoferrin (Lactea-Lf) was produced as described in the above examples. The biofilm was stained using a standard crystal violet assay. A quantification of the inhibition of biofilm formation (FIG. 18A) and an image of a representative plate (FIG. 18B) are shown.

E. coli 0157 [2] = test: Bacterial growth timecourse, OD600; type: cell-based; details: 1 mg/mL; for Bacterial Growth Timecourse, Replicate 1 / Bacterial Growth Timecourse, Replicate 2 / Bacterial Growth Timecourse, Replicate 3: OD600 relative to no treatment control at 24 hours
Method: For a more detailed comparison of Lactea-Lf antimicrobial activity relative to the Sigma Aldrich Lactoferrin, Lactea-Lf and Sigma Aldrich Lactoferrin were incubated at 1 mg/mL with for E. coli 0157 in LB seeded at 10∝CFU/mL. […] Results were quantified and reported as a percent of the OD600 of the no treatment control at 24 hours for all timepoints.

E. coli 0157 [3] = test: Bacterial growth inhibition, OD600 after 16 h; type: cell-based; details: 1 mg/mL Lf, 16 h at 37° C.
Method: As an analytical standard for the assessment of Lactoferrin (Lf) activity, 1 mg/mL Lf was added to 10∝CFU/mL E. coli 0157 in LB and incubated for 16 h at 37° C. Lactea Lactoferrin (Lactea-Lf) was produced as described in the above examples. Assessed were three independent lots of Lactea-Lf, impure samples which were generated by co-eluting Lactoperoxidase and Lactoferrin (co-elution), samples with degradation products generated by eluting Lactoferrin from old milk which was left for three days (Degradation Products), and a Sigma Aldrich Lactoferrin L9507 (Research Standard). As shown in FIG. 16 and quantified in Table 5, in the Lactea-Lf lots assessed, less than 5% the total growth of bacteria was observed as assessed by OD600 relative to the growth of untreated bacteria under these conditions. In this case, co-elution samples were samples which have a detectable peak of LPO as observable in MALDI-TOF M/S or HPLC. Degradation Products had identifiable degradation peaks as observed in HPLC or DSC.

lactoperoxidase (LPO) = test: Enzymatic colorimetric assay for lactoperoxidase (LPO) activity; type: biochemical; details: colorimetric peroxidase substrate
Excerpt: An enzymatic assay for lactoperoxidase (LPO) activity was developed utilizing a molecule which in the presence of peroxidase activity turns a blue color.

[4] = DSC of additional batches, ratio of apo to holo-Lactoferrin; type: physicochemical; details: 5 mg/mL, 30° C. to 100° C. range
Method: Additional batches of Lactea-Lf as described in the above examples and the relative ratio of apo to holo-Lactoferrin was assessed by Differential Scanning Calorimetry (DSC). Lactoferrin samples were loaded at 5 mg/mL into a NanoDSC (TI Instruments) and measured in the 30° C. to 100° C. range. […] It is likely that these peaks are smaller as the sample is highly impure or contains already denatured product.

SARS-CoV-2 = SARS-CoV-2 Cytopathic Effect (CPE) reduction assay in Vero E6 cells; type: cell-based; details: Vero E6 cells, MOI of 0.001, neutral red, three days post-infection
[5] = 10∝CFU/mL E. coli 0157 in LB, OD600 relative to untreated

B1: Sigma-Lf: Sigma Aldrich Lactoferrin L9507 (Research Standard) (protein, UniProt P24627 20-708, looked up)
Lactotransferrin: APRKNVRWCTISQPEWFKCRRWQWRMKKLGAPSITCVRRAFALECIRAIAEKKADAVTLDGGMVFEAGRDPYKLRPVAAEIYGTKESPQTHYYAVAVVKKGSNFQLDQLQGRKSCHTGLGRSAGWIIPMGILRPYLSWTESLEPLQGAVAKFFSASCVPCIDRQAYPNLCQLCKGEGENQCACSSREPYFGYSGAFKCLQDGAGDVAFVKETTVFENLPEKADRDQYELLCLNNSRAPVDAFKECHLAQVPSHAVVARSVDGKEDLIWKLLSKAQEKFGKNKSRSFQLFGSPPGQRDLLFKDSALGFLRIPSKVDSALYLGSRYLTTLKNLRETAEEVKARYTRVVWCAVGPEEQKKCQQWSQQSGQNVTCATASTTDDCIVLVLKGEADALNLDGGYIYTAGKCGLVPVLAENRKSSKHSSLDCVLRPTEGYLAVAVVKKANEGLTWNSLKDKKSCHTAVDRTAGWNIPMGLIVNQTGSCAFDEFFSQSCAPGADPKSRLCALCAGDDQGLDKCVPNSKEKYYGYTGAFRCLAEDVGDVAFVKNDTVWENTNGESTADWAKNLNREDFRLLCLDGTRKPVTEAQSCHLAVAPNHAVVSRSDRAAHVKQVLLHQQALFGKNGKNCPDKFCLFKSETKNLLFNDNTECLAKLGGRPTYEEYLGTEYVTAIANLKKCSTSPLLEACAFLTR
Which “inhibition of biofilm formation, in words” value (E. coli 0157 [1]; E. coli 0157, 24 hours) does the source give for B1 here?
Its value is “only appears to demonstrate inhibition of biofilm in the low mg/mL range, but never completely eliminates biofilm formation”.

What about the “Biofilm Inhibition, Replicate 1” value (E. coli 0157 [1]; [Lf] 0.031 mg/mL) of the same molecule?
Its value is 0.6588.

What about the “Biofilm Inhibition, Replicate 2” value (E. coli 0157 [1]; [Lf] 0.031 mg/mL) of the same molecule?
The value was 0.9283.

And the “Biofilm Inhibition, Replicate 3” value (E. coli 0157 [1]; [Lf] 0.031 mg/mL)?
The value was 0.854.

And the “Biofilm Inhibition, Replicate 1” value (E. coli 0157 [1]; [Lf] 0.063 mg/mL)?
The value was 0.2439.

And the “Biofilm Inhibition, Replicate 2” value (E. coli 0157 [1]; [Lf] 0.063 mg/mL)?
The value was 0.1943.

What about the “Biofilm Inhibition, Replicate 3” value (E. coli 0157 [1]; [Lf] 0.063 mg/mL) of the same molecule?
Its value is 0.3058.

What about the “Biofilm Inhibition, Replicate 1” value (E. coli 0157 [1]; [Lf] 0.125 mg/mL) of the same molecule?
The value was 0.1583.

What about the “Biofilm Inhibition, Replicate 2” value (E. coli 0157 [1]; [Lf] 0.125 mg/mL) of the same molecule?
The value was 0.1464.

And the “Biofilm Inhibition, Replicate 3” value (E. coli 0157 [1]; [Lf] 0.125 mg/mL)?
The value was 0.5378.

What about the “Biofilm Inhibition, Replicate 1” value (E. coli 0157 [1]; [Lf] 0.25 mg/mL) of the same molecule?
Its value is 0.1929.

And the “Biofilm Inhibition, Replicate 2” value (E. coli 0157 [1]; [Lf] 0.25 mg/mL)?
The value was 0.2837.

And the “Biofilm Inhibition, Replicate 3” value (E. coli 0157 [1]; [Lf] 0.25 mg/mL)?
Its value is 0.358.

And the “Biofilm Inhibition, Replicate 1” value (E. coli 0157 [1]; [Lf] 0.5 mg/mL)?
The value was 0.126.

And the “Biofilm Inhibition, Replicate 2” value (E. coli 0157 [1]; [Lf] 0.5 mg/mL)?
Its value is 0.192.

What about the “Biofilm Inhibition, Replicate 3” value (E. coli 0157 [1]; [Lf] 0.5 mg/mL) of the same molecule?
The value was 0.1942.

And the “Biofilm Inhibition, Replicate 1” value (E. coli 0157 [1]; [Lf] 1 mg/mL)?
Its value is 0.05367.

And the “Biofilm Inhibition, Replicate 2” value (E. coli 0157 [1]; [Lf] 1 mg/mL)?
Its value is 0.09846.

And the “Biofilm Inhibition, Replicate 3” value (E. coli 0157 [1]; [Lf] 1 mg/mL)?
Its value is 0.1465.

What about the “Biofilm Inhibition, Replicate 1” value (E. coli 0157 [1]; [Lf] 2 mg/mL) of the same molecule?
The value was 0.09652.

And the “Biofilm Inhibition, Replicate 2” value (E. coli 0157 [1]; [Lf] 2 mg/mL)?
Its value is 0.03678.

And the “Biofilm Inhibition, Replicate 3” value (E. coli 0157 [1]; [Lf] 2 mg/mL)?
Its value is 0.08427.

What about the “time at which bacterial growth became observable / evident” value (E. coli 0157 [2]; E. coli 0157 in LB) of the same molecule?
The value was 6 h.

What about the “Bacterial Growth Timecourse, Replicate 1” value (E. coli 0157 [2]; 3 h) of the same molecule?
The value was 0.04197.

And the “Bacterial Growth Timecourse, Replicate 2” value (E. coli 0157 [2]; 3 h)?
The value was 0.0345.

And the “Bacterial Growth Timecourse, Replicate 3” value (E. coli 0157 [2]; 3 h)?
Its value is 0.04414.

What about the “Bacterial Growth Timecourse, Replicate 1” value (E. coli 0157 [2]; 6 h) of the same molecule?
The value was 0.6058.

And the “Bacterial Growth Timecourse, Replicate 2” value (E. coli 0157 [2]; 6 h)?
The value was 0.6264.

And the “Bacterial Growth Timecourse, Replicate 3” value (E. coli 0157 [2]; 6 h)?
Its value is 0.6363.

And the “Bacterial Growth Timecourse, Replicate 1” value (E. coli 0157 [2]; 9 h)?
Its value is 0.6012.

And the “Bacterial Growth Timecourse, Replicate 2” value (E. coli 0157 [2]; 9 h)?
Its value is 0.6124.

And the “Bacterial Growth Timecourse, Replicate 3” value (E. coli 0157 [2]; 9 h)?
The value was 0.6341.

What about the “Bacterial Growth Timecourse, Replicate 1” value (E. coli 0157 [2]; 12 h) of the same molecule?
Its value is 0.6658.

And the “Bacterial Growth Timecourse, Replicate 2” value (E. coli 0157 [2]; 12 h)?
Its value is 0.6702.

And the “Bacterial Growth Timecourse, Replicate 3” value (E. coli 0157 [2]; 12 h)?
Its value is 0.6326.

And the “Bacterial Growth Timecourse, Replicate 1” value (E. coli 0157 [2]; 15 h)?
Its value is 0.6543.

And the “Bacterial Growth Timecourse, Replicate 2” value (E. coli 0157 [2]; 15 h)?
The value was 0.6602.

What about the “Bacterial Growth Timecourse, Replicate 3” value (E. coli 0157 [2]; 15 h) of the same molecule?
The value was 0.6251.

And the “Bacterial Growth Timecourse, Replicate 1” value (E. coli 0157 [2]; 18 h)?
The value was 0.6295.

And the “Bacterial Growth Timecourse, Replicate 2” value (E. coli 0157 [2]; 18 h)?
The value was 0.6201.

What about the “Bacterial Growth Timecourse, Replicate 3” value (E. coli 0157 [2]; 18 h) of the same molecule?
The value was 0.599.

And the “Bacterial Growth Timecourse, Replicate 1” value (E. coli 0157 [2]; 21 h)?
The value was 0.6512.

And the “Bacterial Growth Timecourse, Replicate 2” value (E. coli 0157 [2]; 21 h)?
The value was 0.5981.

And the “Bacterial Growth Timecourse, Replicate 3” value (E. coli 0157 [2]; 21 h)?
Its value is 0.5984.

And the “Bacterial Growth Timecourse, Replicate 1” value (E. coli 0157 [2]; 24 h)?
The value was 0.6668.

What about the “Bacterial Growth Timecourse, Replicate 2” value (E. coli 0157 [2]; 24 h) of the same molecule?
Its value is 0.6205.

And the “Bacterial Growth Timecourse, Replicate 3” value (E. coli 0157 [2]; 24 h)?
The value was 0.6407.

And the “Relative Bacterial Growth, Replicate 1” value (E. coli 0157 [3]; [5])?
Its value is 0.8089.

And the “Relative Bacterial Growth, Replicate 2” value (E. coli 0157 [3]; [5])?
The value was 0.8162.

What about the “Relative Bacterial Growth, Replicate 3” value (E. coli 0157 [3]; [5]) of the same molecule?
Its value is 0.7726.

What about the “antibacterial activity compared with other samples” value (E. coli 0157 [3]) of the same molecule?
The value was “less activity than any lot of co-elution or degraded product”.

And the “LPO enzymatic activity (blue color reaction)” value (lactoperoxidase (LPO))?
The value was “does not result in a positive enzymatic reaction”.

And the “relative ratio of apo to holo-Lactoferrin, DSC peak pattern” value [4]?
The value was “one lot was almost entirely holo-Lf and had two peaks in the holo-Lf range; also recorded: two faint peaks with slightly more holo-Lf than apo-Lf”.

B2: Lactoferrin (“Reagent”): reagent grade Lactoferrin, comparable research grade reference product (protein, UniProt P24627 20-708, looked up)
Lactotransferrin: B1 Lactotransferrin
With B2 as the molecule, how does the EC50 (SARS-CoV-2) read?
Its EC50 is 140 nM.
